From patent US20150258192A1, “COMPOSITIONS AND METHODS FOR PREVENTING OR TREATING CHRONIC LUNG ALLOGRAFT DYSFUNCTION (CLAD) AND IDIOPATHIC PULMONARY FIBROSIS (IPF)” (priority 2014, published 2015)
No end group written: not given here.

Assays:
Assay in all cases: Kinase Profiling Assay
Type in all cases: biochemical
Settings in all cases: peptide 100 μM
[1] = target: T1, Mnk2(h) (Homo sapiens, UniProt Q9HBH9)
T1 construct: purchased Millipore
Protocol: (§1) Every kinase activity measurement was conducted in duplicate.
(§2) Specifically, in these assays, a positively charged substrate is phosphorylated with a radiolabeled phosphate group from an ATP if the kinase is not inhibited by an inhibitor peptide. The positively charged substrate then is attracted to a negatively charged filter membrane, quantified with a scintillation counter, and compared to a 100% activity control.
(§3) In addition to determining the IC50 of the compound, the specificity of MK2 inhibitory peptides was assessed by examining activities of all 266 human kinases available for testing in the Millipore kinase profiling service (Table 1).

[2] = target: T2, ARK5(h) (Homo sapiens, UniProt O60285)
T2 sequence (O60285 1-661): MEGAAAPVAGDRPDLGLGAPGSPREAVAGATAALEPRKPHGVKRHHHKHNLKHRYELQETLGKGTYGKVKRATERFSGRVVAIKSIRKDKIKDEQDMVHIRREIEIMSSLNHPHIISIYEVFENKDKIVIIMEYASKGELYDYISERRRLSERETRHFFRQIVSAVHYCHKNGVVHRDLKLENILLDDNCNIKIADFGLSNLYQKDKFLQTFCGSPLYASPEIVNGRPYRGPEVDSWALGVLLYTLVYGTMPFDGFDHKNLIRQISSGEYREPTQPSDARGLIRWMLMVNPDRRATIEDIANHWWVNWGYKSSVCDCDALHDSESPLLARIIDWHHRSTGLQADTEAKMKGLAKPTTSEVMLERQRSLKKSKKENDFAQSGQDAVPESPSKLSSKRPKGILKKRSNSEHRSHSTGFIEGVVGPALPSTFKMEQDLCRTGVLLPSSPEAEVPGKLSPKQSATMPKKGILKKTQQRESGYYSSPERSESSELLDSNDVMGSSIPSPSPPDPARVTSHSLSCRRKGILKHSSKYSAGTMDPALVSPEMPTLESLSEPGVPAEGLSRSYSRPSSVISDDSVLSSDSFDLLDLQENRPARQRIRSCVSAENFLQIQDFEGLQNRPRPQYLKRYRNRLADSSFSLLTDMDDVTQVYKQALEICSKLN
Protocol: as §1, §2, §3

[3] = target: T3, SGK(h) (Homo sapiens, UniProt O00141)
T3 construct: purchased Millipore
T3 sequence (O00141 1-431): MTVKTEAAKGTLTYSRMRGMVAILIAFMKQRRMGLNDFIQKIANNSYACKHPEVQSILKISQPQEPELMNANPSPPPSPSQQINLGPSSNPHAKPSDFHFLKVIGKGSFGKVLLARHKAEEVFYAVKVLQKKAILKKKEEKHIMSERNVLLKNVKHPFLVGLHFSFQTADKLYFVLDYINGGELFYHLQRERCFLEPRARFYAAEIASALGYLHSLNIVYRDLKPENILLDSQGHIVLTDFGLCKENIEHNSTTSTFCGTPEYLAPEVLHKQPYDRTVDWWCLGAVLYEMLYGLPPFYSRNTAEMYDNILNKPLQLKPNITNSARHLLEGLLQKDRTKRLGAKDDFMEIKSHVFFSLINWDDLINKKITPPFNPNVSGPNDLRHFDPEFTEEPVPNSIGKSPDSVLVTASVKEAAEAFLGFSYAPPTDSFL
Protocol: as §1, §2, §3

[4] = target: T4, NEK11(h) (Homo sapiens, UniProt Q8NG66)
T4 construct: purchased Millipore
T4 sequence (Q8NG66 1-645): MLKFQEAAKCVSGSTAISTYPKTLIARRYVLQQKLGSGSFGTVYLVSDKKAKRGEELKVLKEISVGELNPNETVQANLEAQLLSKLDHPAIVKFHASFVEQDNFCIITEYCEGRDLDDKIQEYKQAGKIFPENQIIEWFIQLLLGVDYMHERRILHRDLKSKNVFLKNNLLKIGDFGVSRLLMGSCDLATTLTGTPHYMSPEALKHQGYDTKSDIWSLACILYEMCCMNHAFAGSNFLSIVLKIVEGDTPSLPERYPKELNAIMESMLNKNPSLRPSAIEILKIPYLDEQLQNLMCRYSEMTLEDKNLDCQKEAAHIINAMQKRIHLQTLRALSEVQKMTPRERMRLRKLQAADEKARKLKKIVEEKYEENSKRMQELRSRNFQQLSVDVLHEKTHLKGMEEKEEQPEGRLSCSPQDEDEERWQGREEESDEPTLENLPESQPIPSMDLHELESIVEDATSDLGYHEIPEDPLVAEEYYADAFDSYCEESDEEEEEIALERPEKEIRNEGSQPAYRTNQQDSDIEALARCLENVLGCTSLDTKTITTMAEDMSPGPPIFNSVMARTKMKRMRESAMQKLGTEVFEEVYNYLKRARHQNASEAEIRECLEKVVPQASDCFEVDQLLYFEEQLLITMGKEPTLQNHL
Protocol: as §1, §2, §3

[5] = target: T5, KDR(h) (Homo sapiens, UniProt P35968)
T5 construct: purchased Millipore
T5 sequence (P35968 20-1356): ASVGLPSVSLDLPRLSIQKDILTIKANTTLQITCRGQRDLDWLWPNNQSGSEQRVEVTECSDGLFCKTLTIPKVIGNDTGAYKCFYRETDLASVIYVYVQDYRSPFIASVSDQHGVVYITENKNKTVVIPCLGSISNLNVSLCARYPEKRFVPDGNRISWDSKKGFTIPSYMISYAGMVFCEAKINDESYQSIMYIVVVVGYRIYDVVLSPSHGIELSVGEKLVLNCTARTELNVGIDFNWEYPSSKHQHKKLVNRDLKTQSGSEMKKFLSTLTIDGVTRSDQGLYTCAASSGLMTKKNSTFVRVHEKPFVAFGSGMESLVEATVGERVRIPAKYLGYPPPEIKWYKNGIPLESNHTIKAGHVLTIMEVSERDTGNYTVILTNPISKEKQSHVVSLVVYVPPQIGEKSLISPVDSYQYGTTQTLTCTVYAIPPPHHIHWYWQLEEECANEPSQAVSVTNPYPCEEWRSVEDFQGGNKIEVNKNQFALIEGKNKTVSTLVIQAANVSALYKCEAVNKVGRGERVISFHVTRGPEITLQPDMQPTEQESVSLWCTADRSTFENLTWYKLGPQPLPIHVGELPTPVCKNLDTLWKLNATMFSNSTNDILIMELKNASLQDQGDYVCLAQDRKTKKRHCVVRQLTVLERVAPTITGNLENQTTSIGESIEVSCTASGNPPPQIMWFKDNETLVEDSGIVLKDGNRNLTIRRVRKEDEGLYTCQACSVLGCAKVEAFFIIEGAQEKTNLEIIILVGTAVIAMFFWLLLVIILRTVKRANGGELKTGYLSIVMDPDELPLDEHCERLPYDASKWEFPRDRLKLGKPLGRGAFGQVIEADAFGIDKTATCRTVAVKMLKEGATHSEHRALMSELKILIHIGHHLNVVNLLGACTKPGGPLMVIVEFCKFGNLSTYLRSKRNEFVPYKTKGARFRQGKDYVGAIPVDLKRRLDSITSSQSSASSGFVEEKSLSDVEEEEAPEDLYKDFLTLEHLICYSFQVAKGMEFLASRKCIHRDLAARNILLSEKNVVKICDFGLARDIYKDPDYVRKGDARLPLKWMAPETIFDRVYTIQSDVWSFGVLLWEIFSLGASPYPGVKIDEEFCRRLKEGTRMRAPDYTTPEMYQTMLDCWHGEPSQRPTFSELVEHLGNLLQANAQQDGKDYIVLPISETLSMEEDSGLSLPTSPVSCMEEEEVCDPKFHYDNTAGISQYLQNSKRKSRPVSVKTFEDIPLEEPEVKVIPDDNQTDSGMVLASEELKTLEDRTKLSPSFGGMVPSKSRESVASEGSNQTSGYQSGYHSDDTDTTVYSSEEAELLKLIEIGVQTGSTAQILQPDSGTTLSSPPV
Protocol: as §1, §2, §3

[6] = target: T6, Rse(h) (Homo sapiens, UniProt Q06418)
T6 sequence (Q06418 41-890): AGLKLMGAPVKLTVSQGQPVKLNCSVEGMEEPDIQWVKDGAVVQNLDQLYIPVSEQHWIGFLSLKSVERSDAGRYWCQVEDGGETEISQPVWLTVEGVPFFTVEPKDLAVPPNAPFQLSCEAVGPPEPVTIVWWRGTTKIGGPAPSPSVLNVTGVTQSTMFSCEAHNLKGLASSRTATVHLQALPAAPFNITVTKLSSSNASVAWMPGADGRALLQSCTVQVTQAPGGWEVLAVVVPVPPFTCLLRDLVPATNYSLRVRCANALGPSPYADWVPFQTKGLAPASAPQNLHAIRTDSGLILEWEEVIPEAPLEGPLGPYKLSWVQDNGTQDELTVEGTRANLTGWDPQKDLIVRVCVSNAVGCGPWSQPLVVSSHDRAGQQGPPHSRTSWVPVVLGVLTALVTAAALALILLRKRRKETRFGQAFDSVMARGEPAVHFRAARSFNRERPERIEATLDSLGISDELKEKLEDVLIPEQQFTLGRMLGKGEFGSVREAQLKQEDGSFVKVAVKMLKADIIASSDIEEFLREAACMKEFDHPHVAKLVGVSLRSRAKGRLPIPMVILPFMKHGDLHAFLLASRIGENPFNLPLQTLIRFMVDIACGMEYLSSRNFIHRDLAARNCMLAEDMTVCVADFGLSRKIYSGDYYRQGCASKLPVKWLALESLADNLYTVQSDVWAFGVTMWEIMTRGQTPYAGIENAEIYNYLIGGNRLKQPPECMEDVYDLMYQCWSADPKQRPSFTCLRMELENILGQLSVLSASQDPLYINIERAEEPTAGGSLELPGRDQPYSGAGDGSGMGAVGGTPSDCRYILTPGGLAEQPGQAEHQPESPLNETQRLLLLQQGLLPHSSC
Protocol: as §1, §2, §3

T1 sequence (Q9HBH9 whole entry): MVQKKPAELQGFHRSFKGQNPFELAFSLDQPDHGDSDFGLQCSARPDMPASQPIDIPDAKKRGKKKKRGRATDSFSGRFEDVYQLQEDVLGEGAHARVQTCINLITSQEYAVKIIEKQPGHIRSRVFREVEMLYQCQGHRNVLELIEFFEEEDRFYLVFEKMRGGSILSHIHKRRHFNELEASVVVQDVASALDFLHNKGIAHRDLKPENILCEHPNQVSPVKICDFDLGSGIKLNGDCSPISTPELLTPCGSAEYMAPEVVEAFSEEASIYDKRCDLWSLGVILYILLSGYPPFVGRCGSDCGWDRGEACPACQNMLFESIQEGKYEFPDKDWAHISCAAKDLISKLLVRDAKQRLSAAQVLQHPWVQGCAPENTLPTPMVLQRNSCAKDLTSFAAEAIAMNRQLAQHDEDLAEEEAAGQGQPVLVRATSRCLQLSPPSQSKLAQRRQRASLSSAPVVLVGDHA

Sequence | % activity [1] [%] | % activity [2] [%] | % activity [3] [%] | % activity [4] [%] | % activity [5] [%] | % activity [6] [%]
HRRIKAWLKKIKALARQLGVAA (Mammal) [MMI-0500] | 6 | 20 | 2 | 2 | 15 | 63
YARAAARQARAKALNRQLGVA (Mammal) [MMI-0200] | – | 93 | – | 95 | 110 | 88
YARAAARQARAKALARQLGVAA [MMI-0100] | – | 108 | 128 | – | 100 | –
FAKLAARLYRKALARQLGVAA [MMI-0300] | 89 | 78 | 48 | 53 | 101 | 88
KAFAKLAARLYRKALARQLGVAA [MMI-0400] | 86 | 69 | 54 | 33 | 94 | 89
